Data published in article PMC12338864, “Modifications in FLAP's second cytosolic loop influence 5‐LOX interaction, inhibitor binding, and leukotriene formation” (Febs Letters, 2025).

What was measured:
FLAP(S108Δ) (human) = molecular target: T1, FLAP(S108Δ) (human) (UniProt P20292)
T1 sequence: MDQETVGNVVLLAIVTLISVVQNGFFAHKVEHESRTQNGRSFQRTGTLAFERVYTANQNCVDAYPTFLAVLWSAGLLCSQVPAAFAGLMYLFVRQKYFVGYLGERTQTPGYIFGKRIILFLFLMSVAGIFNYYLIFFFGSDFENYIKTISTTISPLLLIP

FLAP(T109C) = molecular target: T2, FLAP(T109C) (human, UniProt P20292 1-161, T109C); assay: cell-based or functional assay
T2 sequence (looked up): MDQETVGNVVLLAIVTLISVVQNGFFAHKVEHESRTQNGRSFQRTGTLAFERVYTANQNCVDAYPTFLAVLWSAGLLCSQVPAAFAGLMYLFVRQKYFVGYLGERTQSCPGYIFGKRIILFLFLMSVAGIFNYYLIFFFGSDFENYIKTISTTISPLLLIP

FLAP(S108D) = molecular target: T3, FLAP(S108D) (human, UniProt P20292 1-161, S108D); assay: cell-based or functional assay
T3 sequence (looked up): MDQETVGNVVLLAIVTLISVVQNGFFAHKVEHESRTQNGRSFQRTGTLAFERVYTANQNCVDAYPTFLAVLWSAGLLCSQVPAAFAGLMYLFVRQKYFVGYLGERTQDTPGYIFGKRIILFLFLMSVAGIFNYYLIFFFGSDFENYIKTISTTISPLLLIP

FLAP(S41D) = molecular target: T4, FLAP(S41D) (human, UniProt P20292 1-161, S41D); assay: cell-based or functional assay
T4 sequence (looked up): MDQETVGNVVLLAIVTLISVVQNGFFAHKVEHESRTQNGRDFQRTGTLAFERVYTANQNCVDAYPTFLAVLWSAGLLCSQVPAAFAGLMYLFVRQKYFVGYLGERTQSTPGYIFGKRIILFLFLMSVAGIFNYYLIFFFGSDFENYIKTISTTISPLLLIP

B1: 5-lipoxygenase (enzyme, human, UniProt P09917 1-674, looked up)
chain: MPSYTVTVATGSQWFAGTDDYIYLSLVGSAGCSEKHLLDKPFYNDFERGAVDSYDVTVDEELGEIQLVRIEKRKYWLNDDWYLKYITLKTPHGDYIEFPCYRWITGDVEVVLRDGRAKLARDDQIHILKQHRRKELETRQKQYRWMEWNPGFPLSIDAKCHKDLPRDIQFDSEKGVDFVLNYSKAMENLFINRFMHMFQSSWNDFADFEKIFVKISNTISERVMNHWQEDLMFGYQFLNGCNPVLIRRCTELPEKLPVTTEMVECSLERQLSLEQEVQQGNIFIVDFELLDGIDANKTDPCTLQFLAAPICLLYKNLANKIVPIAIQLNQIPGDENPIFLPSDAKYDWLLAKIWVRSSDFHVHQTITHLLRTHLVSEVFGIAMYRQLPAVHPIFKLLVAHVRFTIAINTKAREQLICECGLFDKANATGGGGHVQMVQRAMKDLTYASLCFPEAIKARGMESKEDIPYYFYRDDGLLVWEAIRTFTAEVVDIYYEGDQVVEEDPELQDFVNDVYVYGMRGRKSSGFPKSVKSREQLSEYLTVVIFTASAQHAAVNFGQYDWCSWIPNAPPTMRAPPPTAKGVVTIEQIVDTLPDRGRSCWHLGAVWALSQFQENELFLGMYPEEHFIEKPVKEAMARFRKNLEAIVSVIAERNKKKQLPYYYLSPDRIPNSVAI
FLAP(S108Δ) (human)
  ratio of 5‐H(P)ETE to trans‐isomers of LTB4 formed in HEK293 cells co-expressing 5-LOX and the FLAP mutant (2.5 μM A23187 plus 2 μM AA, vehicle); wildtype about 1.2: 3.2
FLAP(T109C)
  ratio of 5‐H(P)ETE to trans‐isomers of LTB4 formed in HEK293 cells co-expressing 5-LOX and the FLAP mutant (2.5 μM A23187 plus 2 μM AA, vehicle); wildtype about 1.2: 2.6
FLAP(S108D)
  ratio of 5‐H(P)ETE to trans‐isomers of LTB4 formed in HEK293 cells co-expressing 5-LOX and the FLAP mutant (2.5 μM A23187 plus 2 μM AA, vehicle); wildtype about 1.2: 2
FLAP(S41D)
  ratio of 5‐H(P)ETE to trans‐isomers of LTB4 formed in HEK293 cells co-expressing 5-LOX and the FLAP mutant (2.5 μM A23187 plus 2 μM AA, vehicle); wildtype about 1.2: 2.3
